Reference: patent US20260098072A1, “METHODS OF STIMULATING APPETITE AND/OR INCREASING BODY WEIGHT USING NON-NATURALLY OCCURRING MELANOCORTIN RECEPTOR ANTAGONIST ANALOGS” (Endevica Bio, Inc., priority 2022, published 2026)
Positions of bridges follow the written chain, without caps; N, C: chain ends. Non-standard residues stand in square brackets, D forms with d. No end group written: not given here. d2Nal = N[C@H](Cc1ccc2ccccc2c1)C(=O)O; Nle = CCCC[C@H](N)C(=O)O

Key:
[1] = molecular target: T1, human MC3R (Homo sapiens, UniProt P41968); assay: cAMP accumulation assay (HTRF), antagonist activity at MC3R; format: cell-based; conditions: dose-response fit, MC3R
T1 construct: expressed in transfected cells; host or cells: HEK293/CRE-luc/MC3R
Protocol: (§1) The antagonist activity of exemplary non-naturally occurring melanocortin analogs (SEQ ID NOs: 3, 4, 6, 9-11, 14, 15, and 291-309) at the melanocortin 3 receptor (MC3R) and melanocortin 4 (MC4R) receptor was measured via cAMP accumulation assay, according to the following procedure.
(§2) Recombinant cell lines shown in Table 1 were stimulated with melanocortin receptor antagonists and evaluated for cyclic adenosine monophosphate (cAMP) levels as a measurement of receptor activation. cAMP levels were quantified using Homogeneous Time-Resolved Fluorescence (HTRF). The stimulation and CAMP measurement were performed sequentially. First, the compound stimulated the G-protein coupled receptor (GPCR) which then induced downstream signaling, which was measured soon after. Cell lines and stimulated receptors used are detailed in Table 1.
(§3) Twenty-seven exemplary synthetic peptides were tested for antagonist activity at the human MC3R and MC4R at concentrations ranging from 0.1 nM to 1,000 nM. After stimulation, the level of cyclic adenosine monophosphate (CAMP) in each well was quantified via Homogenous Time-Resolved Fluorescence (HTRF) as a measurement of receptor activity. Dose-response curves and estimated IC50 values were then obtained for each antagonist peptide against the MC3R and MC4R. HS024 (TFA) and was used as a positive control for the antagonist activity of MC3R (FIG. 1A) and MC4R (FIG. 1B).

[2] = molecular target: T2, human MC4R (Homo sapiens, UniProt P32245); assay: cAMP accumulation assay (HTRF), antagonist activity at MC4R; format: cell-based; conditions: dose-response fit, MC4R
T2 construct: expressed in transfected cells; host or cells: HEK293/MC4R/CRE-GFP
Protocol: as §1, §2, §3

[3] = molecular target: human melanocortin 4 receptor (MC4R) (human, UniProt P32245 1-332); assay: cell-based or functional assay
[4] = molecular target: human melanocortin 3 receptor (MC3R) (human, UniProt P41968 1-323); assay: cell-based or functional assay
human melanocortin 3 receptor (MC3R), sequence (P41968 whole entry): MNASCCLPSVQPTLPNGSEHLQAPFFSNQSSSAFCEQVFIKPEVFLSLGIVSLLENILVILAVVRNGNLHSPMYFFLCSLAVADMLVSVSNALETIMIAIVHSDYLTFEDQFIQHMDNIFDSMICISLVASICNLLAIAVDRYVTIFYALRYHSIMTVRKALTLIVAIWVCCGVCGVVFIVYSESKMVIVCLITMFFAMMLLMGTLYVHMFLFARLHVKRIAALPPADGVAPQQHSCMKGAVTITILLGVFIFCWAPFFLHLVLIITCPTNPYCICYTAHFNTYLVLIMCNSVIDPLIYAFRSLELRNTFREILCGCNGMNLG

T1 sequence (P41968 whole entry): as above
human melanocortin 4 receptor (MC4R), sequence (P32245 whole entry): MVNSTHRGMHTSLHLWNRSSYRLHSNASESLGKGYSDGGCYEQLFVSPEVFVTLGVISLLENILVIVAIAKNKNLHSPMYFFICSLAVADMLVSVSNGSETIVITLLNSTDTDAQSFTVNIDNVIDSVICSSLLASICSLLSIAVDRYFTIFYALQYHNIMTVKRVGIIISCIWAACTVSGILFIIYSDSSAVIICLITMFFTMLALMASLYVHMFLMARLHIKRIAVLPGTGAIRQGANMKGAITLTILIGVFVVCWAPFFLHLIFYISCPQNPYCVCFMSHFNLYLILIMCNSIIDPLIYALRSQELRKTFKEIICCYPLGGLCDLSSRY
T2 sequence (P32245 whole entry): as above

Ac-Nle-c(Asp-Pro-Trp-Arg-Trp-Lys)-Dval-Dpro-NH2 (Ac-[Nle]DPWRWK[dV][dP]-NH2; lactam 2-7; SMILES CCCC[C@H](NC(C)=O)C(=O)N[C@H]1CC(=O)NCCCC[C@@H](C(=O)N[C@@H](C(=O)N2CCC[C@@H]2C(N)=O)C(C)C)NC(=O)[C@H](Cc2c[nH]c3ccccc23)NC(=O)[C@H](CCCNC(=N)N)NC(=O)[C@H](Cc2c[nH]c3ccccc23)NC(=O)[C@@H]2CCCN2C1=O) [Peptide C1]
Hill Coefficient [1]: 0.23
Top (%) [1]: 6.49%
Hill Coefficient [2]: 0.08
Top (%) [2]: 51.32%

IDPFFRWKVP [Peptide B8]
Hill Coefficient [1]: 12.04
Top (%) [1]: 4.40%
Hill Coefficient [2]: 0.49
Top (%) [2]: 20.03%

IDPWRWKVP [Peptide C8]
Hill Coefficient [1]: −57.42
Top (%) [1]: 0.80%
Hill Coefficient [2]: 10.57

IPFFRWVP [Peptide B5]
Hill Coefficient [1]: −0.76
Top (%) [1]: 736.17%
Hill Coefficient [2]: 1.22

IPWRWVP [Peptide C5]
Hill Coefficient [1]: 13.82
Top (%) [1]: −0.10%
Hill Coefficient [2]: 1.13
Top (%) [2]: 3.02%

LDPFFRWKVP [Peptide B7]
Hill Coefficient [1]: −0.84
Top (%) [1]: 7754.77%
Hill Coefficient [2]: −1.76
Top (%) [2]: 516.09%

LDPWRWKVP [Peptide C7]
Hill Coefficient [1]: −0.13
Top (%) [1]: 1.86%
Hill Coefficient [2]: 1.62
Top (%) [2]: 4.61%

LPFFRWVP [Peptide B4]
Hill Coefficient [1]: 0.36
Top (%) [1]: 29.62%
Hill Coefficient [2]: 1.90
Top (%) [2]: 16.60%

LPWRWVP [Peptide C4]
Hill Coefficient [1]: −5.34
Hill Coefficient [2]: −7.31
Top (%) [2]: −1.97%

Leu-c(Asp-Pro-Phe-Phe-Arg-Trp-Lys)-Val-Pro (LDPFFRWKVP; lactam 2-8) [Peptide B3]
Hill Coefficient [1]: 1.00
Top (%) [1]: 100.00%
Hill Coefficient [2]: 9.04

Leu-c(Asp-Pro-Trp-Arg-Trp-Lys)-Val-Pro (LDPWRWKVP; lactam 2-7) [Peptide C3]
Hill Coefficient [1]: 49.34
Top (%) [1]: 3.18%
Hill Coefficient [2]: 0.44
Top (%) [2]: 9.36%

VDPFFRWKVP [Peptide B9]
Hill Coefficient [1]: 2.26
Top (%) [1]: 1.22%
Hill Coefficient [2]: −19.71
Top (%) [2]: −0.55%

VDPWRWKVP [Peptide C9]
Hill Coefficient [1]: 2.95
Top (%) [1]: −64.92%
Hill Coefficient [2]: 0.64
Top (%) [2]: 219.95%

VPFFRWVP [Peptide B6]
Hill Coefficient [1]: 1.62
Top (%) [1]: 4.27%
Hill Coefficient [2]: 0.28
Top (%) [2]: 37.93%

VPWRWVP [Peptide C6]
Hill Coefficient [1]: 1.00
Top (%) [1]: 100.00%
Hill Coefficient [2]: 2.07
Top (%) [2]: 321.26%

VDPWRWKVP [C9]
Max Activation % [3]: 5.89%
Max Activation % [4]: 1.24%

LDPWRWKVP [C7]
Max Activation % [3]: 5.86%
Max Activation % [4]: 0.16%

IDPFFRWKVP [B8]
Max Activation % [3]: 13.6%
Max Activation % [4]: 4.86%

IPFFRWVP [B5]
Max Activation % [3]: -0.16%
Max Activation % [4]: 0.14%

LDPWRWKVP (lactam 2-7) [C3]
Max Activation % [3]: 8.07%
Max Activation % [4]: 3.32%

B1: C2 (peptide)
peptide: Ac-LDPWRWKVP-NH2
modifications: lactam 2-7
SMILES: CC(=O)N[C@@H](CC(C)C)C(=O)N[C@H]1CC(=O)NCCCC[C@@H](C(=O)N[C@H](C(=O)N2CCC[C@H]2C(N)=O)C(C)C)NC(=O)[C@H](Cc2c[nH]c3ccccc23)NC(=O)[C@H](CCCNC(=N)N)NC(=O)[C@H](Cc2c[nH]c3ccccc23)NC(=O)[C@@H]2CCCN2C1=O
Max Activation % [3]: -3.3%
Max Activation % [4]: 0.27%

B2: C1 (peptide)
peptide: Ac-[Nle]DPWRWK[dV][dP]-NH2
modifications: lactam 2-7
SMILES: CCCC[C@H](NC(C)=O)C(=O)N[C@H]1CC(=O)NCCCC[C@@H](C(=O)N[C@@H](C(=O)N2CCC[C@@H]2C(N)=O)C(C)C)NC(=O)[C@H](Cc2c[nH]c3ccccc23)NC(=O)[C@H](CCCNC(=N)N)NC(=O)[C@H](Cc2c[nH]c3ccccc23)NC(=O)[C@@H]2CCCN2C1=O
Max Activation % [3]: 11.1%
Max Activation % [4]: 4.55%

VPFFRWVP [B6]
Max Activation % [3]: 15.4%
Max Activation % [4]: 5%

B3: A2 (peptide)
peptide: Ac-[Nle]P[d2Nal]RW[dV][dP]-NH2
SMILES: CCCC[C@H](NC(C)=O)C(=O)N1CCC[C@H]1C(=O)N[C@H](Cc1ccc2ccccc2c1)C(=O)N[C@@H](CCCNC(=N)N)C(=O)N[C@@H](Cc1c[nH]c2ccccc12)C(=O)N[C@@H](C(=O)N1CCC[C@@H]1C(N)=O)C(C)C
Max Activation % [4]: 7.92%

LDPFFRWKVP [B7]
Max Activation % [3]: -2.96%
Max Activation % [4]: 1.43%

VDPFFRWKVP [B9]
Max Activation % [3]: -3.71%
Max Activation % [4]: 1.08%

VPWRWVP [C6]
Max Activation % [3]: 6.41%
Max Activation % [4]: -0.8%

B4: D1 (peptide)
peptide: Ac-[Nle]DPH[d2Nal]RWK[dV][dP]-NH2
modifications: lactam 2-8
SMILES: CCCC[C@H](NC(C)=O)C(=O)N[C@H]1CC(=O)NCCCC[C@@H](C(=O)N[C@@H](C(=O)N2CCC[C@@H]2C(N)=O)C(C)C)NC(=O)[C@H](Cc2c[nH]c3ccccc23)NC(=O)[C@H](CCCNC(=N)N)NC(=O)[C@@H](Cc2ccc3ccccc3c2)NC(=O)[C@H](Cc2c[nH]cn2)NC(=O)[C@@H]2CCCN2C1=O
IC50 (cAMP by HTRF, antagonist dose-response) [3]: > 10 µM
Max Activation % [3]: 49.4%
IC50 (cAMP by HTRF, antagonist dose-response) [4]: 5.81 µM
Max Activation % [4]: 74.5%

LPWRWVP [C4]
Max Activation % [3]: -6.88%
Max Activation % [4]: -0.32%

IPWRWVP [C5]
Max Activation % [3]: 2.47%
Max Activation % [4]: -0.49%

IDPWRWKVP [C8]
Max Activation % [3]: 3.02%
Max Activation % [4]: 0.47%
